± gives the uncertainty stated by the source.

The labels stand for the following.
B1: Zinc finger MYM-type protein 3, residues 589 to 668; numbered along this chain, Q14202 (parent)
chain: LSCHYCHSLFSGKPEVLDWQDQVFQFCCRDCCEDFKRLRGVVSQCEHCRQEKLLHEKLRFSGVEKSFCSEGCVLLYKQDF

The data set covers variants of B1. Kind of data set: abundance fitness (aPCA) (normalised: wild type 0, dead -1); higher = more abundant; growth selection in yeast, the domain comes from the species named. Conditions: Homo sapiens.
Turning to LSCHYCHSLFSGKPEVLDWQDQVFQFCCRDCCEDFKRLRGVVSQCEHCRQEKLLHEKLRFSGVEKSFCSLGCVLLYKQDF [E70L], the abundance fitness is -0.055 ± 0.15. With LSCHYCHSLFSGKPEVLLWQDQVFQFCCRDCCEDFKRLRGVVSQCEHCRQEKLLHEKLRFSGVEKSFCSEGCVLLYKQDF [D18L], the abundance fitness was 0.036 ± 0.042. As for LSCHYCHSLFSGKPEVLMWQDQVFQFCCRDCCEDFKRLRGVVSQCEHCRQEKLLHEKLRFSGVEKSFCSEGCVLLYKQDF [D18M], the figure is 0.175 ± 0.051; as for LSCHYCHSLFSGKPEVLDWQDQVFQFCCRDCCEDFKRLRGVVSQCEHCRQEKLLHEKLRFSGVWKSFCSEGCVLLYKQDF [E64W], -0.176 ± 0.22; as for LSCHYCHSLFSGKPEVLDWQDQVFQFCCRDCCEDFKRPRGVVSQCEHCRQEKLLHEKLRFSGVEKSFCSEGCVLLYKQDF [L38P], 0.062 ± 0.078. Turning to LSCHYCHSLFSGKPEVLDWQDQVFQFCCRDCCEDFKRTRGVVSQCEHCRQEKLLHEKLRFSGVEKSFCSEGCVLLYKQDF [L38T], the abundance fitness is 0.264 ± 0.075. With LSCHYCHSLFSGKPEVLDWQDQVFQFCCRDCCEDFKRLRGVVSQCEHCRQEKLLHEKLRFSGVEKGFCSEGCVLLYKQDF [S66G], the abundance fitness is -0.392 ± 0.12.

Consider LSCHACHSLFSGKPEVLDWQDQVFQFCCRDCCEDFKRLRGVVSQCEHCRQEKLLHEKLRFSGVEKSFCSEGCVLLYKQDF [Y5A], for which the abundance fitness is 0.267 ± 0.039. Turning to LSCHYRHSLFSGKPEVLDWQDQVFQFCCRDCCEDFKRLRGVVSQCEHCRQEKLLHEKLRFSGVEKSFCSEGCVLLYKQDF [C6R], the abundance fitness was -0.919 ± 0.072. As for LSCHYCHSLFSGKPEVLDWQDQVFQFQCRDCCEDFKRLRGVVSQCEHCRQEKLLHEKLRFSGVEKSFCSEGCVLLYKQDF [C27Q], the abundance fitness was -0.653 ± 0.075.

Take LSCHYCHSLFSGKPEVLDWQDQVFQFCCRLCCEDFKRLRGVVSQCEHCRQEKLLHEKLRFSGVEKSFCSEGCVLLYKQDF [D30L]: the abundance fitness was -0.012 ± 0.041. In the case of LSCHYCHSLFSGKPEVLDWQDQVFQFCCRECCEDFKRLRGVVSQCEHCRQEKLLHEKLRFSGVEKSFCSEGCVLLYKQDF [D30E], the abundance fitness was determined as 0.014 ± 0.046. Under LSCHYCHSLFSGKPEVLDWQDQVFQFCCRDCCEDFKRLRGVVSQCEHCRQEKLLWEKLRFSGVEKSFCSEGCVLLYKQDF [H55W] stands -0.334 ± 0.17; under LSCHYCHSLFSGKPEVLDWQDQVFQFCCRDCCEDFKRLRGVVSQCEHCRQEKLLHEKLRFSGVEKSFCPEGCVLLYKQDF [S69P], -0.445 ± 0.29; under LSCHYCHSLFSGKPEVLDWQDQVFQFCCRDCCEDFKRLRGVVSQCEHCRQEKLLHEKLRFSGVEKSFCSEGCVLLTKQDF [Y76T], -0.038 ± 0.22. As for LSCHYCHSLFSGKPLVLDWQDQVFQFCCRDCCEDFKRLRGVVSQCEHCRQEKLLHEKLRFSGVEKSFCSEGCVLLYKQDF [E15L], the abundance fitness was -0.014 ± 0.047. LSCHYCHSLFSGKPEVLDWQDQVFQFCCRDCMEDFKRLRGVVSQCEHCRQEKLLHEKLRFSGVEKSFCSEGCVLLYKQDF [C32M]: the abundance fitness is 0.214 ± 0.047. As for LSCHYCHSLFSGKPEVLDWQDQVFQFCCRDCVEDFKRLRGVVSQCEHCRQEKLLHEKLRFSGVEKSFCSEGCVLLYKQDF [C32V], the figure is 0.038 ± 0.041; as for LSCHYCHSLFSGKPEVLDWQDQVFQFCCRDCKEDFKRLRGVVSQCEHCRQEKLLHEKLRFSGVEKSFCSEGCVLLYKQDF [C32K], 0.157 ± 0.044. With LSCHYCHSLFSGKPEVLDWQDQVFQFCCRDCWEDFKRLRGVVSQCEHCRQEKLLHEKLRFSGVEKSFCSEGCVLLYKQDF [C32W], the abundance fitness was -0.403 ± 0.051. Under LSCHYCHSLFSGKPEVLDWQHQVFQFCCRDCCEDFKRLRGVVSQCEHCRQEKLLHEKLRFSGVEKSFCSEGCVLLYKQDF [D21H] stands -0.182 ± 0.1. Under LSCHYCHSLFSGKPEVLDWQDQVFQFCCRDCCEDFKRLRGVVSQCEHCRQEKLLHEGLRFSGVEKSFCSEGCVLLYKQDF [K57G] stands -0.493 ± 0.11. Under LSCHYCHSLFVGKPEVLDWQDQVFQFCCRDCCEDFKRLRGVVSQCEHCRQEKLLHEKLRFSGVEKSFCSEGCVLLYKQDF [S11V] stands -0.418 ± 0.045; under LSCHYCHSLFSGKPEVLDWQDQVFQFCCRDCCEDFKRLRGVVSQCEHCRQEKLHHEKLRFSGVEKSFCSEGCVLLYKQDF [L54H], -0.503 ± 0.41; under LSCHYCHSLFSGKPEVLDWQDQVFQFCCRDCCEDFKRLRGVVSWCEHCRQEKLLHEKLRFSGVEKSFCSEGCVLLYKQDF [Q44W], 0.53 ± 0.095. On to LSCHYCHSLFSGKPEVLDWQDQVFQFCCRDCCEDFKRLRGVVSFCEHCRQEKLLHEKLRFSGVEKSFCSEGCVLLYKQDF [Q44F], for which the abundance fitness turned out to be 1.01 ± 0.16. As to KSCHYCHSLFSGKPEVLDWQDQVFQFCCRDCCEDFKRLRGVVSQCEHCRQEKLLHEKLRFSGVEKSFCSEGCVLLYKQDF [L1K], the abundance fitness stood at 0.016 ± 0.069.

For QSCHYCHSLFSGKPEVLDWQDQVFQFCCRDCCEDFKRLRGVVSQCEHCRQEKLLHEKLRFSGVEKSFCSEGCVLLYKQDF [L1Q], the abundance fitness is -0.703 ± 0.35.

As for LSCHYCHSLFSGKPEVLDWQDQVFQFCCRDCCEDFKRLRGNVSQCEHCRQEKLLHEKLRFSGVEKSFCSEGCVLLYKQDF [V41N], the abundance fitness worked out at 0.317 ± 0.31. Under LSCHYCHSLFSGKPEVLDWQDQVFQFCCRDCCEDFKSLRGVVSQCEHCRQEKLLHEKLRFSGVEKSFCSEGCVLLYKQDF [R37S] stands 0.123 ± 0.091. Regarding LSCHYCHSLFSGKPEVLDWQDQVFQFCCRDCCEDFKKLRGVVSQCEHCRQEKLLHEKLRFSGVEKSFCSEGCVLLYKQDF [R37K], the abundance fitness was -0.343 ± 0.21. As for LSCHYCHSLFSGKPEVLDWQDQVFQFCCRDCCEDFKRLRGVVSQCEHCRQEKLLHEKLRFSGVEKSFCSEGCVLLYKQDL [F80L], the figure is 0.5 ± 0.12; as for LSCHYCHSLFSGKPEVLDWQDQVFQFCCRDCCEDFKRLRGVVSQCEHCRQEKLLHEKLRFSGVEKSNCSEGCVLLYKQDF [F67N], -0.231 ± 0.33; as for LSCHYCHSLFSGKPEVLDWQDQVFQFCCRDCCEDFKRLRGVVSQCEHCRQEKLLHEKLRFSGVEKSMCSEGCVLLYKQDF [F67M], -0.567 ± 0.29.

Regarding LSCHYCHSLFSGKPEVLDWQDQVFQFCCDDCCEDFKRLRGVVSQCEHCRQEKLLHEKLRFSGVEKSFCSEGCVLLYKQDF [R29D], the abundance fitness is 0.082 ± 0.053.
